Where no end group is shown, it is not given here.
What was measured:
[1] = target: T1, biotinylated Aβ1-40 peptide (biotinylated (N-biotinylated in Example 7)); test: SPR, Fab over N-biotinylated peptide on SA chip
T1 construct: captured on streptavidin (SA) chip; also called Biotinylated Aβ peptide 1-40; Aβ1-40 on SA chip
Description: (§1) Affinities of 7G10 antibody were determined using BIAcore3000® as described previously in Example 1. N-biotinylated Aβ1-40, 1-42, and 1-43 were captured on SA chip. Threefold dilution series of anti-Aβ1-40 Fabs, anti-Aβ1-42 Fabs, and anti-Aβ1-43 Fabs respectively, were injected starting with a ⅙ dilution of the 7G10 stock listed above. The chip was regenerated with an 18 sec pulse of 6% EtOH+6 mM NaOH.

[2] = target: T2, biotinylated Aβ1-42 peptide (biotinylated (N-biotinylated in Example 7)); test: SPR, Fab over N-biotinylated peptide on SA chip
T2 construct: captured on streptavidin chip; also called N-biotinylated Aβ1-42
Description: as §1

[3] = target: T3, N-biotinylated Aβ1-43 peptide (N-biotinylated); test: SPR, Fab over N-biotinylated peptide on SA chip
T3 construct: captured on SA chip
T3 sequence (peptide, as listed by the source): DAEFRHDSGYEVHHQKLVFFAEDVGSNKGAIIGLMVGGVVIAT
Description: as §1

Aβ1-16 peptide = target: T4, Aβ1-16 peptide; test: ELISA on immobilized Aβ peptides
T4 peptide: DAEFRHDSGYEVHHQK
Description: (§2) To determine the epitope on Aβ peptide that is recognized by antibody 6G, ELISA binding analysis was used. Various Aβ peptides (Global Peptide Services, CO) was immobilized on a ELISA plate. The binding of 6G full antibody (at 20 nM) to the immobilized Aβ was determined by ELISA as described above. […] Thus, antibody 6G binds to the C-terminus of various truncated Aβ peptide, for example, 22-35, 1-38, 1-40, 1-42, and 1-43.

Aβ33-40 peptide = target: T5, Aβ33-40 peptide; test: ELISA on immobilized Aβ peptides
T5 construct: also called C-terminal peptide (33-40) of Aβ1-40
T5 peptide: GLMVGGVV
Description: as §2

Aβ1-40 peptide [4] = target: T6, Aβ1-40 peptide; test: SPR, peptide flowed over 6G mAb on CM5 chip
T6 construct: synthetic peptide, not biotinylated; also called 1-40 (WT); beta amyloid 1-40

Aβ1-42 peptide [5] = target: T7, Aβ1-42 peptide; test: SPR, peptide flowed over 6G mAb on CM5 chip
T7 construct: also called 1-42 (WT)

Aβ1-43 peptide = target: T8, Aβ1-43 peptide; test: SPR, peptide flowed over 6G mAb on CM5 chip
T8 construct: also called 1-43 (WT)

Aβ28-40 peptide [6] = target: T9, Aβ28-40 peptide; test: SPR, peptide flowed over 6G mAb on CM5 chip
T9 peptide: KGAIIGLMVGGVV

Aβ1-28 peptide = test: SPR, peptide flowed over 6G mAb on CM5 chip
Aβ1-28 peptide, sequence (peptide, as listed by the source): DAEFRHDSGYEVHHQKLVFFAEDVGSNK

Aβ28-42 peptide [7] = target: T10, Aβ28-42 peptide; test: SPR, peptide flowed over 6G mAb on CM5 chip
T10 peptide: KGAIIGLMVGGVVIA

Aβ22-35 peptide [8] = target: T11, Aβ22-35 peptide; test: SPR, peptide flowed over 6G mAb on CM5 chip
T11 peptide: EDVGSNKGAIIGLM

Aβ1-38 peptide [9] = test: SPR, peptide flowed over 6G mAb on CM5 chip
Aβ1-38 peptide, sequence (peptide, as listed by the source): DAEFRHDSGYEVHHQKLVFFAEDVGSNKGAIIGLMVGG

Aβ17-40 peptide [10] = target: T12, Aβ17-40 peptide; test: SPR, peptide flowed over 6G mAb on CM5 chip
T12 peptide: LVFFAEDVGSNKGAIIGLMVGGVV

Aβ17-42 peptide [11] = target: T13, Aβ17-42 peptide; test: SPR, peptide flowed over 6G mAb on CM5 chip
T13 peptide: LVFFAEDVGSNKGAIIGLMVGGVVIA

Aβ1-36 peptide [12] = test: SPR, peptide flowed over 6G mAb on CM5 chip
Aβ1-36 peptide, sequence (peptide, as listed by the source): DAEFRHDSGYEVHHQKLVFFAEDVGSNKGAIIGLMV

Aβ1-37 peptide [13] = test: SPR, peptide flowed over 6G mAb on CM5 chip
Aβ1-37 peptide, sequence (peptide, as listed by the source): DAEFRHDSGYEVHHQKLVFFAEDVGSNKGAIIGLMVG

Aβ1-39 peptide [14] = test: SPR, peptide flowed over 6G mAb on CM5 chip
Aβ1-39 peptide, sequence (peptide, as listed by the source): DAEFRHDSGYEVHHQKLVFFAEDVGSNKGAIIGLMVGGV

[15] = target: T14, Aβ28-40-NH2 peptide (carboxy-terminal amidated); test: SPR, peptide flowed over 6G mAb on CM5 chip
T14 peptide: KGAIIGLMVGGVV-NH2

[16] = target: T15, biotinylated Aβ 19-33 peptide with C-terminal glycine (also: biotinylated, site not given here); test: ELISA on biotinylated peptides on streptavidin plates
T15 peptide: FFAEDVGSNKGAIIGG
Description: (§3) ELISA was used for measuring binding of antibody 6G and variants to biotinylated Aβ peptides. NUNC maxisorp plates were coated with 6 ug/ml of streptavidin (Pierce, 21122) in PBS pH 7.4 for more than 1 h at 4° C. Plates were blocked with 1% BSA in PBS buffer pH 7.4. After washing, biotinylated Aβ peptides in PBS pH 7.4 were incubated 1 hour at room temperature. Primary antibody (from cell supernatants, serum containing anti-Aβ antibody, or purified full antibody or Fabs at desired dilution) was incubated with the immobilized Aβ peptides for 1 h at room temperature. After washing, plates were incubated with secondary antibody, a HRP conjugated goat anti-human kappa chain antibody (MP Biomedicals, 55233) at 1:5000 dilution. After washing, bound secondary antibody was measured by adding TMB substrate (KPL, 50-76-02, 50-65-02). HRP reaction was stopped by adding 1M phosphoric acid and absorbance at 450 nm was measured.
(§4) Epitope mapping of antibody 6G was performed by ELISA assay. Biotinylated 15-mer or 10-mer of various Aβ peptides (these peptides have glycine added to the C-terminal end) were immobilized on streptavidin coated plates. Antibody 6G (from 2.5 ug/ml to 10 ug/ml) was incubated with the immobilized peptides and binding was measured as described above.

[17] = target: T16, biotinylated Aβ 26-40 peptide with C-terminal glycine (also: biotinylated, site not given here); test: as above
T16 peptide: SNKGAIIGLMVGGVVG
Description: as §3, §4

[18] = target: T17, biotinylated Aβ 27-41 peptide with C-terminal glycine (also: biotinylated, site not given here); test: as above
T17 peptide: NKGAIIGLMVGGVVIG
Description: as §3, §4

[19] = target: T18, biotinylated Aβ 24-33 peptide with C-terminal glycine (also: biotinylated, site not given here); test: as above
T18 peptide: VGSNKGAIIGG
Description: as §3, §4

[20] = target: T19, biotinylated Aβ 26-35 peptide with C-terminal glycine (also: biotinylated, site not given here); test: as above
T19 peptide: SNKGAIIGLMG
Description: as §3, §4

Aβ1-42 peptide [21] = target: T7, Aβ1-42 peptide; test: SPR, peptide flowed over 6G mAb on CM5 chip; reference Aβ1-40
Aβ28-40 peptide [22] = target: T9, Aβ28-40 peptide; test: as above
Aβ28-42 peptide [23] = target: T10, Aβ28-42 peptide; test: as above
Aβ22-35 peptide [24] = target: T11, Aβ22-35 peptide; test: as above
Aβ1-38 peptide [25] = test: as above
Aβ17-40 peptide [26] = target: T12, Aβ17-40 peptide; test: as above
Aβ17-42 peptide [27] = target: T13, Aβ17-42 peptide; test: as above
Aβ1-36 peptide [28] = test: as above
Aβ1-37 peptide [29] = test: as above
Aβ1-39 peptide [30] = test: as above
[31] = target: T14, Aβ28-40-NH2 peptide (carboxy-terminal …); test: as above
Aβ1-40 peptide [32] = target: T6, Aβ1-40 peptide; test: SPR, peptide flowed over 6G mAb on CM5 chip; the reference itself

B1: murine antibody 7G10 (Fab) (Fab, V domains shown)
VH: EVKLVESGGDLVKPGGSLKLSCAASGFTFSTYAMSWIRQTPEKRLEWVASIGNSSRTYYPDSVKGRFTISRDNAGSILYLQMSSLRSEDTAIYYCARGEDGNYAWFTYWGQGTQVTVS
VL: DIVLTQSPATLSVTPGDSVSLSCRASQSVKNNLHWYQQKSHESPRLLIKYTFQSMSGIPSRFSGSGSGTDFTLIINSVETEDFGMYFCQQSNRWPLTFGAGTKLEL
notes: Fab was injected in the Biacore assay; also called m7G10
- binding result [1]: no binding
- Kd [2]: 37.6 nM
- Kd [3]: 41 nM

B2: antibody 6G (full monoclonal antibody) (antibody, human IgG2, kappa, V domains shown)
VH: QVQLVQSGAEVKKPGASVKVSCKASGYTFTTYAIHWVRQAPGQGLEWMGFTSPYSGVSNYNQKFKGRVTMTRDTSTSTVYMELSSLRSEDTAVYYCARFDNYDRGYVRDYWGQGTLVTVSS
VL: DIVMTQSPDSLAVSLGERATINCRASESVDNDRISFLNWYQQKPGQPPKLLIYAATKQGTGVPDRFSGSGSGTDFTLTISSLQAEDVAVYYCQQSKEFPWSFGGGTKVEIKR
notes: human IgG2a constant region with A330P331 to S330S331; human kappa light chain; also called 6G full antibody; 6G monoclonal antibody
- binding result (Aβ1-16 peptide): no binding (tested: 20 nM)
- binding result (Aβ33-40 peptide): no binding (tested: 20 nM)
- koff (Aβ1-40 peptide [4]): 0.000132 s⁻¹
- koff (Aβ1-42 peptide [5]): 0.0019 s⁻¹
- binding result (Aβ1-43 peptide): binds
- koff (Aβ28-40 peptide [6]): 0.00064 s⁻¹
- binding result (Aβ1-28 peptide): no binding
- koff (Aβ28-42 peptide [7]): 0.00337 s⁻¹
- koff (Aβ22-35 peptide [8]): 0.0285 s⁻¹
- koff (Aβ1-38 peptide [9]): 0.0093 s⁻¹
- koff (Aβ17-40 peptide [10]): 0.000215 s⁻¹
- koff (Aβ17-42 peptide [11]): 0.0465 s⁻¹
- koff (Aβ1-36 peptide [12]): 0.0205 s⁻¹
- koff (Aβ1-37 peptide [13]): 0.0149 s⁻¹
- koff (Aβ1-39 peptide [14]): 0.00792 s⁻¹
- koff [15]: 0.00362 s⁻¹
- binding result [16]: no binding (tested: 2.5 ug/ml to 10 ug/ml)
- binding result [17]: no binding (tested: 2.5 ug/ml to 10 ug/ml)
- binding result [18]: no binding (tested: 2.5 ug/ml to 10 ug/ml)
- binding result [19]: no binding (tested: 2.5 ug/ml to 10 ug/ml)
- binding result [20]: no binding (tested: 2.5 ug/ml to 10 ug/ml)
- koff Aβ peptide/koff Aβ1-40 (fold loss of affinity) (Aβ1-42 peptide [21]): 14.4 fold
- koff Aβ peptide/koff Aβ1-40 (fold loss of affinity) (Aβ28-40 peptide [22]): 4.8 fold
- koff Aβ peptide/koff Aβ1-40 (fold loss of affinity) (Aβ28-42 peptide [23]): 25.5 fold
- koff Aβ peptide/koff Aβ1-40 (fold loss of affinity) (Aβ22-35 peptide [24]): 216 fold
- koff Aβ peptide/koff Aβ1-40 (fold loss of affinity) (Aβ1-38 peptide [25]): 70.4 fold
- koff Aβ peptide/koff Aβ1-40 (fold loss of affinity) (Aβ17-40 peptide [26]): 1.6 fold
- koff Aβ peptide/koff Aβ1-40 (fold loss of affinity) (Aβ17-42 peptide [27]): 352 fold
- koff Aβ peptide/koff Aβ1-40 (fold loss of affinity) (Aβ1-36 peptide [28]): 155 fold
- koff Aβ peptide/koff Aβ1-40 (fold loss of affinity) (Aβ1-37 peptide [29]): 113 fold
- koff Aβ peptide/koff Aβ1-40 (fold loss of affinity) (Aβ1-39 peptide [30]): 60 fold
- koff Aβ peptide/koff Aβ1-40 (fold loss of affinity) [31]: 27.4 fold
- koff Aβ peptide/koff Aβ1-40 (fold loss of affinity) (Aβ1-40 peptide [32]): 1 fold

Reference: US20090022728A1 (RINAT NEUROSCIENCE, published 2009)
